Laboratory results from article PMC4442619.

Tests used:
[1] = target: C-terminal region of RING1B (C-RING1B), residues 222–336, with C-terminal hexahistidine tag (human) (UniProt Q99496); experiment: SPR
[2] = target: C-terminal region of RING1B (C-RING1B), residues 222–336, with C-terminal hexahistidine tag (human) (UniProt Q99496); experiment: native gel or EMSA
[3] = target: RING1B C-terminal domain (C-RING1B) (Homo sapiens) (UniProt Q99496); settings: cited from earlier work
[4] = target: cbx7 cbox domain with C-terminal hexahistidine tag (human); experiment: AUC

| Kd [1] | Molecule | further results |
| --- | --- | --- |
| 180 nM | MBP–cbx8 cbox domain fusion protein (from UniProt Q9HC52 1-389) (domain or fragment) | – |
| 38 nM | MBP–Drosophila Pc cbox domain fusion protein (from UniProt P26017 1-390) (domain or fragment) | – |
| 180 nM | MBP–cbx6 cbox domain fusion protein (from UniProt O95503 1-412) (domain or fragment) | – |
| – | cbx6 cbox domain (domain or fragment) | stoichiometry N [2]: 1 |
| – | RING1B C-terminal domain (C-RING1B) (from UniProt Q99496) | Kd [3]: 200000 nM |
| 9.2 nM | MBP–cbx7 cbox domain fusion protein (from UniProt O95931 1-251) (domain or fragment) | – |
| – | C-RING1B (residues 222–336) with C-terminal SRD sequence, coexpressed with the cbx7 cbox domain (domain or fragment) MEKTRGASEIELVFRPHPTLMEKDDSAQTRYIKTSGNATVDHLSKYLAVRLALEELRSKGESNQMNLDTASEKQYTIYIATASGQFTVLNGSFSLELVSEKYWKVNKPMELYYAPTKEHKSRD | stoichiometry N [4]: 1 |
